# Experimental data as given in patent US20180208918A1.
# What was measured:
# [1] = test system: recombinant MBP-proELA-1 fusion protein (from pPROT5)
# [2] = test system: pPROT8 derived LacZ-proELA-1 fusion protein [β-galactosidase: P00722]
# [3] = target: recombinant trypsin (TrypZean) (UniProt P00760); assay: cell-based or functional assay
# Sequence of UniProt P00760 (P00760 24-246): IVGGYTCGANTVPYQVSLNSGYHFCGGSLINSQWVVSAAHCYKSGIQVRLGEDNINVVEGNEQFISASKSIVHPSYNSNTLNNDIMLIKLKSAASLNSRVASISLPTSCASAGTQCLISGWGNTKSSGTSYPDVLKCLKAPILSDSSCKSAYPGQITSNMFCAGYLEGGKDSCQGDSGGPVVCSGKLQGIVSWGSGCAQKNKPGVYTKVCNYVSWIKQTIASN
"Mean trypsin activity (BENZ assay), TrypZean concentration equivalent; PRT-201 from clone 55M3 Vial #1 plus TrypZean spike (to 100 ng/mL) and SBTI (to 10 ug/mL); spike without SBTI 118.7 [3]","Mean trypsin activity (BENZ assay), TrypZean concentration equivalent; PRT-201 from clone 55M3 Vial #2 plus TrypZean spike (to 100 ng/mL) and SBTI (to 10 ug/mL); spike without SBTI 122.4 [3]","Mean trypsin activity (BENZ assay), TrypZean concentration equivalent; PRT-201 from clone 55M3 Vial #3 plus TrypZean spike (to 100 ng/mL) and SBTI (to 10 ug/mL); spike without SBTI 122.8 [3]","Mean trypsin activity (BENZ assay), TrypZean concentration equivalent; PRT-201 from trypsin activated clone plus SBTI (to 10 ug/mL); intrinsic activity without SBTI 8.7 [3]","Mean trypsin activity (BENZ assay), TrypZean concentration equivalent; PRT-201 from trypsin activated clone plus TrypZean spike (to 100 ng/mL) and SBTI (to 10 ug/mL); spike without SBTI 130.0 [3]","Mean trypsin activity (BENZ assay), TrypZean concentration equivalent; TrypZean standard 1.56 ng/mL plus SBTI (to 10 ug/mL); without SBTI 2.7 [3]","Mean trypsin activity (BENZ assay), TrypZean concentration equivalent; TrypZean standard 3.13 ng/mL plus SBTI (to 10 ug/mL); without SBTI 3.7 [3]","Mean trypsin activity (BENZ assay), TrypZean concentration equivalent; TrypZean standard 6.25 ng/mL plus SBTI (to 10 ug/mL); without SBTI 6.5 [3]","Mean trypsin activity (BENZ assay), TrypZean concentration equivalent; TrypZean standard 12.5 ng/mL plus SBTI (to 10 ug/mL); without SBTI 11.2 [3]","Mean trypsin activity (BENZ assay), TrypZean concentration equivalent; TrypZean standard 25 ng/mL plus SBTI (to 10 ug/mL); without SBTI 23.5 [3]","Mean trypsin activity (BENZ assay), TrypZean concentration equivalent; TrypZean standard 50 ng/mL plus SBTI (to 10 ug/mL); without SBTI 49.4 [3]","Mean trypsin activity (BENZ assay), TrypZean concentration equivalent; TrypZean standard 100 ng/mL plus SBTI (to 10 ug/mL); without SBTI 102.4 [3]",Molecule,digestion of the fusion protein with trypsin (SDS-PAGE; elastase activity by SLAP assay) [1],conversion of the fusion protein to enzymatically active human ELA-1 with trypsin [2]
,,,,,,,,,,,,trypsin,The soluble recombinant MBP-proELA-1 protein could be digested with trypsin to yield both MBP and mature human ELA-1,it could not be converted to enzymatically active human ELA-1 with trypsin
< 1.56 ng/mL,< 1.56 ng/mL,< 1.56 ng/mL,< 1.56 ng/mL,< 1.56 ng/mL,< 1.56 ng/mL,< 1.56 ng/mL,< 1.56 ng/mL,< 1.56 ng/mL,< 1.56 ng/mL,< 1.56 ng/mL,< 1.56 ng/mL,"soybean trypsin inhibitor (SBTI) (protein, UniProt P01070 25-205, looked up) DFVLDNEGNPLENGGTYYILSDITAFGGIRAAPTGNERCPLTVVQSRNELDKGIGTIISSPYRIRFIAEGHPLSLKFDSFAVIMLCVGIPTEWSVVEDLPEGPAVKIGENKDAMDGWFRLERVSDDEFNNYKLVFCPQQAEDDKCGDIGISIDHDDGTRRLVVSKNKPLVVQFQKLDKESL",,
